Assay results taken from the Human Domainome abundance scans (Beltran et al. 2025).

B1: Transcription factor SOX-11, residues 50 to 117; numbered along this chain, P35716 (parent)
chain: KRPMNAFMVWSKIERRKIMEQSPDMHNAEISKRLGKRWKMLKDSEKIPFIREAERLRLKHMADYPDYK

Variants of: B1
Assay: abundance fitness (aPCA) (normalised: wild type 0, dead -1); higher = more abundant; growth selection in yeast, the domain comes from the species named
Conditions: Homo sapiens

Abundance fitness: each site, then its substitutions
K17: N -0.407, L -0.373, S -0.518, P -0.566, T -0.458, Q -0.199, M -0.533, W -1.17, V -0.6, Y -0.564, I -0.403
D24: H -0.26, R -0.456, M -0.63, T -0.22, K -0.578, I -0.538, Y -0.35, L -0.507, F -0.435, A -0.093, C -0.435, Q -0.147, V -0.643, W -0.337, E -0.164, P -0.836, N -0.128, G -0.105
H26: F -0.497, R -0.106, Q 0.064, I -0.266, Y -0.368, E 0.383, C 0.226, W -0.388, T 0.453, L -0.146, K 0.195, N 0.277, G 0.22, M -0.194, S 0.406, D 0.414, A 0.158, P 0.205, V -0.283
M19: Q -0.202, W -0.762, G -0.435, E -0.069, C -0.29, V -0.042, S -0.264, N -0.426, D -0.649, T -0.103, H -0.187, K 0.021, I -0.062, R -0.24, P -0.769
P23: K -1.28, I -0.869, E -0.49, W -1.09, R -0.74, N -0.843, G -0.431, D -0.739, L -0.287, V -0.598, H -0.791, Q -0.706, Y -0.665, M -0.85, S -0.453, A -0.391
N27: E 0.333, A 0.177, F -0.128, C -0.08, D 0.403
Q21: S -0.172, W -0.313, R -0.235, T -0.13, G -0.256, H -0.194, P -0.437, N -0.156, I -0.13, C -0.323, Y -0.581, L -0.353, E 0.148, K -0.303, F -0.661, V -0.223, M -0.35, D -0.267
S22: G -0.587, T -0.072, K -0.352, I -0.539, Y 0.165, V -0.442, E -0.112, A -0.061, Q -0.09, W -0.024, H 0.052, M -0.302, D 0.042, L -0.522, P -0.841, R -0.513, F 0.118
M25: E -0.739, K -0.608, F -0.571, Y -0.793, G -0.759, A -0.141, P -0.892, N -0.418, C -0.34, V -0.278, T -0.317, R -0.546, S -0.53, W -0.715, Q -0.782, H -0.641, D -0.717
I18: W -0.256, T -0.884, H -0.918, F -0.688, P -0.619, C -0.714, A -0.521, G -0.772, R -0.945, K -0.856, S -0.732, V -0.307, E -0.355, D -0.741, Y -0.34, Q -0.869, N -0.625
E20: L -0.27, H -0.319, P -0.812, M -0.723, T -0.185, S -0.36, R -0.705, N -0.236, A -0.348, F -0.496, I -0.569, Q -0.83, Y -0.781, W -0.577
